From paper PMC10977697 (PLOS ONE, 2024)

Experiments:
PCSK9 = biological target: T1, PCSK9 (human, UniProt Q8NBP7 31-692, biotin on lysines (Sulfo-NHS-LC-biotin)); assay: SPR; details: both partners purified
T1 construct: also called PCSK9FL; hPCSK9 FL

[1] = biological target: T2, PCSK9ΔCRD (PCSK9 lacking the C-terminal Cys-rich domain CRD) (human, UniProt Q8NBP7 31-452, biotin on lysines (Sulfo-NHS-LC-biotin)); assay: ELISA; details: one partner purified
T2 construct: also called PCSK9DCRD; PCSK9dCRDTEV
T2 sequence (Q8NBP7 31-452, stated change not applied): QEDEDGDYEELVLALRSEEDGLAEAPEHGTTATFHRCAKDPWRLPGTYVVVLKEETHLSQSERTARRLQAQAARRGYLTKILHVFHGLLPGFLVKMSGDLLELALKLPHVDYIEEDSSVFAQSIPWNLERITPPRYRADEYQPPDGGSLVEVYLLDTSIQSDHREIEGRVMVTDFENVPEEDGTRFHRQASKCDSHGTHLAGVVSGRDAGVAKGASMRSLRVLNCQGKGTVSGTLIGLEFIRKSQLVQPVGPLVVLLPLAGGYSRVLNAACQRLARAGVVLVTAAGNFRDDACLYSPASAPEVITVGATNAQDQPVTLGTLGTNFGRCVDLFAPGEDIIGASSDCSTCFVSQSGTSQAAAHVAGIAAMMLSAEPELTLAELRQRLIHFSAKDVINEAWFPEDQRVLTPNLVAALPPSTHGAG

T1 sequence (Q8NBP7 31-692): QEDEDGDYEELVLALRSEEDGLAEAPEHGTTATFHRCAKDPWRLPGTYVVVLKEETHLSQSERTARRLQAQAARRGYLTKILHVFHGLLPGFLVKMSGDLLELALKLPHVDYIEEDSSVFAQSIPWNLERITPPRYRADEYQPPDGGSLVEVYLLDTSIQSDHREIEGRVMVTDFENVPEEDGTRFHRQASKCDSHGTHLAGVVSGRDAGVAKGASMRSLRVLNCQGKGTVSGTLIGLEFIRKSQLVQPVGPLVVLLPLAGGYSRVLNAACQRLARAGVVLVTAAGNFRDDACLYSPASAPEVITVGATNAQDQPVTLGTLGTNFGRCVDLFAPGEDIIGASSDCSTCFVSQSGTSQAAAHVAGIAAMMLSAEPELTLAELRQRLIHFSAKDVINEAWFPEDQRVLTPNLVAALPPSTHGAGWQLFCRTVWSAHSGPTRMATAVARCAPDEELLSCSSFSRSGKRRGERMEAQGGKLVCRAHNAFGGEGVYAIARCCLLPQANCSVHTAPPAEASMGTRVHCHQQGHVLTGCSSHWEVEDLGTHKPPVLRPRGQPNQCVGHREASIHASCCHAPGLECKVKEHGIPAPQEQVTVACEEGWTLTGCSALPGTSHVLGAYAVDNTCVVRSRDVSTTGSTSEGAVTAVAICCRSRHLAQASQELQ

Binder	Kd (PCSK9) [µM]	ELISA [1]	s/n Ratio [1]
ECKGKGAKCSYYMGIDKGYVNYCCTGSCRSGKC (designed binder, Conotoxin-MVIIA scaffold) [PCSK9_CnTx1]	4.5		
ECKGKGAKCSYYMGIDKGYVNYCCTGSCRSGKC (designed binder, Conotoxin-MVIIA scaffold) [PCSK9_CnTx1 displayed on M13 phage]		2	29.7
